Results from patent publication US20250000991A1, “NECTIN-4 ANTIBODIES AND ANTIBODY-DRUG CONJUGATES” (Eli Lilly and Company, priority 2023, published 2025).

What was measured:
[1] = biological target: human nectin-4 on cells (human) (UniProt Q96NY8); assay: cell-based or functional assay
[2] = biological target: human Nectin-4-eGFP on T24 cells (clone 3) (human) (UniProt Q96NY8); assay: cell-based or functional assay

B1: enfortumab ADC (enfortumab conjugated as in Formula XI, DAR of 8) (antibody, INN chains, looked up, V domains shown)
VH: EVQLVESGGGLVQPGGSLRLSCAASGFTFSSYNMNWVRQAPGKGLEWVSYISSSSSTIYYADSVKGRFTISRDNAKNSLSLQMNSLRDEDTAVYYCARAYYYGMDVWGQGTTVTVSS
VL: DIQMTQSPSSVSASVGDRVTITCRASQGISGWLAWYQQKPGKAPKFLIYAASTLQSGVPSRFSGSGSGTDFTLTISSLQPEDFATYYCQQANSFPPTFGGGTKVEIKR
modifications: drug conjugate Formula XI, DAR 8
What does the source list for B1?
Cytotoxicity IC50, NCI H1781 cells [1]: 0.0409 nM; Cytotoxicity IC50, T24 Nectin-4 clone 108 cells [1]: 0.0747 nM; % activity (max GFP signal loss compared to enfortumab mAb (100%)) [2]: 120%; EC50 (nM) of nectin-4-eGFP signal loss [2]: 2.55 nM
